Test results from paper PMC4877109, “Structure of the Cellulose Synthase Complex of Gluconacetobacter hansenii at 23.4 Å Resolution” (PLoS ONE, 2016).

B1: AcsAB complex (AcsA + AcsB, cellulose synthase) (Novacetimonas hansenii) (protein)
chain: MPEVRSSTQSESGMSQWMGKILSIRGAGLIIGVFGLCALIAATSVTLPPEQQLIVAFVCVVIFFIVGHKPSRRSQIFLEVLSGLVSLRYLTWRLTETLSFDTWLQGLLGTMLLVAELYALMMLFLSYFQTIAPLHRAPLPLPPNPDEWPTVDIFVPTYNEELSIVRLTVLGSLGIDWPPEKVRVHILDDGRRPEFAAFAAECGANYIARPTNEHAKAGNLNYAIGHTDGDYILIFDCDHVPTRAFLQLTMGWMVEDPKIALMQTPHHFYSPDPFQRNLSAGYRTPPEGNLFYGVVQDGNDFWDATFFCGSCAILRRTAIEQIGGFATQTVTEDAHTALKMQRLGWSTAYLRIPLAGGLATERLILHIGQRVRWARGMLQIFRIDNPLFGRGLSWGQRLCYLSAMTSFLFAVPRVIFLSSPLAFLFFGQNIIAASPLALLAYAIPHMFHAVGTASKINKGWRYSFWSEVYETTMALFLVRVTIVTLLSPSRGKFNVTDKGGLLEKGYFDLGAVYPNIILGLIMFGGLARGVYELSFGHLDQIAERAYLLNSAWAMLSLIIILAAIAVGRETQQKRNSHRIPATIPVEVANADGSIIVTGVTEDLSMGGAAVKMSWPAKLSGPTPVYIRTVLDGEELILPARIIRAGNGRGIFIWTIDNLQQEFSVIRLVFGRADAWVDWGNYKADRPLLSLMDMVLSVKGLFRSSGDIVHRSSPTKPSAGNALSDDTNNPSRKERVLKGTVK
notes: acsAB fusion polypeptide with N-terminal His12 tag, processed in vivo into AcsA (83 kDa) and AcsB (93 kDa); homologous expression in G. hansenii (pUCD2CDHisAcsAB with acsCD); LFCE14 detergent, Co-NTA and size exclusion; ~180 kDa monomeric complex

Columns and labels:
[1] = molecular target: T1, AcsAB complex (AcsA + AcsB, cellulose synthase) (Novacetimonas hansenii, UniProt Q76KJ8); assay: UDP-14C-glucose incorporation with and without c-di-GMP; type: biochemical; settings: allosteric activator (30 μM); 20 mM MgCl2, 2 mM UDP-glucose, pH 7.5, 30 °C
T1 construct: acsAB fusion polypeptide with N-terminal His12 tag, processed in vivo into AcsA (83 kDa) and AcsB (93 kDa); homologous expression in G. hansenii (pUCD2CDHisAcsAB with acsCD); LFCE14 detergent, Co-NTA and size exclusion; ~180 kDa monomeric complex

[2] = substrate: O=c1ccn([C@@H]2O[C@H](CO[P@@](=O)(O)O[P@@](=O)(O)O[C@H]3O[C@H](CO)[C@@H](O)[C@H](O)[C@H]3O)[C@@H](O)[C@H]2O)c(=O)[nH]1; assay: UDP-14C-glucose incorporation into insoluble glucan, scintillation counting, Michaelis-Menten fit; type: biochemical, Novacetimonas hansenii; settings: Mg2+ 20 mM, 30 μM c-di-GMP, 5 mM cellobiose, 20 mM Tris-HCl pH 7.5, 100 mM NaCl, 30 °C, LFCE14 detergent-purified complex, labelled compound as tracer

T1 sequence (Q76KJ8 742-1550, one chain of several): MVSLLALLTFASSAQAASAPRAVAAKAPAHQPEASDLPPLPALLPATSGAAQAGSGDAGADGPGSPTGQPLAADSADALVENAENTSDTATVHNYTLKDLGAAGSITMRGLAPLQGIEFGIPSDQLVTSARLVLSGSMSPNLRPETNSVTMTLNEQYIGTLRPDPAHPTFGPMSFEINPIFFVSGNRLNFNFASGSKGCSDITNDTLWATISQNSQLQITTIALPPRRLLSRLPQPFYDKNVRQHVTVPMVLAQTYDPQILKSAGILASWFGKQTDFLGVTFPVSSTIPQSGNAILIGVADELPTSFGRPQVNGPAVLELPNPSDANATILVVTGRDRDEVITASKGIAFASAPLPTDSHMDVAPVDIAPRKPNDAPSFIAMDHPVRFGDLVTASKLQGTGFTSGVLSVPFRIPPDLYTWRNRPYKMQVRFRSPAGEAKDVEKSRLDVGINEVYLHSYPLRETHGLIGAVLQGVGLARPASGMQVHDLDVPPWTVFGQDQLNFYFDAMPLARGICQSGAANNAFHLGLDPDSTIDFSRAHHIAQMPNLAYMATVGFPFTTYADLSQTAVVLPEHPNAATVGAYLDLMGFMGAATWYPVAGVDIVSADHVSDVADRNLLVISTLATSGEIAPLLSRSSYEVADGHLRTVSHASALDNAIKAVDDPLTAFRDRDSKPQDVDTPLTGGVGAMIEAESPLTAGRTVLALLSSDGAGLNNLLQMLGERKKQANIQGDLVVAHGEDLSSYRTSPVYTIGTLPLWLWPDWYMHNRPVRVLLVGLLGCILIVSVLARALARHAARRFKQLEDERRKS

Molecule	UDP-14C-glucose incorporation with and without c-di-GMP [1]	Km [2]	kcat [2]
Nc1nc2c(ncn2[C@@H]2O[C@@H]3COP(=O)(O)O[C@H]4[C@@H](O)[C@H](n5cnc6c(=O)[nH]c(N)nc65)O[C@@H]4COP(=O)(O)O[C@H]3[C@H]2O)c(=O)[nH]1 [c-di-GMP]	when c-di-GMP was omitted, the protein was not able to catalyze label incorporation into cellulose	–	–
B1	–	0.12 (± 0.03) mM	2.9 molecules per complex per second
